# Patent US20240076386
# B1: optimized anti-E-selectin antibody 1282 (protein)
# chain 1: EVQLVESGGGLVQPGGSLRLSCAASGYAIRSAYMHWVRQAPGKGLEWVARIDPANGNTIYVDSVEGRFTISADNAKNSAYLQMNSLRAEDTAVYYCAMDLYSTSEYWGQGTLVTVSSASTKGPSVFPLAPSSKSTSGGTAALGCLVKDYFPEPVTVSWNSGALTSGVHTFPAVLQSSGLYSLSSVVTVPSSSLGTQTYICNVNHKPSNTKVDKKVEPKSCDKTHTCPPCPAPEAAGAPSVFLFPPKPKDTLMISRTPEVTCVVVDVSHEDPEVKFNWYVDGVEVHNAKTKPREEQYNSTYRVVSVLTVLHQDWLNGKEYKCKVSNKALPAPIEKTISKAKGQPREPQVYTLPPSREEMTKNQVSLTCLVKGFYPSDIAVEWESNGQPENNYKTTPPVLDSDGSFFLYSKLTVDKSRWQQGNVFSCSVMHEALHNHYTQKSLSLSPG
# chain 2: DIQMTQSPSSLSASVGDRVTITCKTSQNIERYLNWYQQKPGKAPKLLIYAASSLQSGVPSRFSGSGSGTDFTLTISSLQPEDFATYFCLQDNAWPLTFGQGTKVEIKRTVAAPSVFIFPPSDEQLKSGTASVVCLLNNFYPREAKVQWKVDNALQSGNSQESVTEQDSKDSTYSLSSTLTLSKADYEKHKVYACEVTHQGLSSPVTKSFNRGEC
# B2: optimized anti-E-selectin antibody 1444 (protein)
# chain 1: EVQLVESGGGLVQPGGSLRLSCAASGYAIRSAYMHWVRQAPGKGLEWVARIDPANGNTIYVDSVTGRFTISADNAKNSAYLQMNSLRAEDTAVYYCAMDLYSTSEYWGQGTLVTVSSASTKGPSVFPLAPSSKSTSGGTAALGCLVKDYFPEPVTVSWNSGALTSGVHTFPAVLQSSGLYSLSSVVTVPSSSLGTQTYICNVNHKPSNTKVDKKVEPKSCDKTHTCPPCPAPEAAGAPSVFLFPPKPKDTLMISRTPEVTCVVVDVSHEDPEVKFNWYVDGVEVHNAKTKPREEQYNSTYRVVSVLTVLHQDWLNGKEYKCKVSNKALPAPIEKTISKAKGQPREPQVYTLPPSREEMTKNQVSLTCLVKGFYPSDIAVEWESNGQPENNYKTTPPVLDSDGSFFLYSKLTVDKSRWQQGNVFSCSVMHEALHNHYTQKSLSLSPG
# chain 2: DIQMTQSPSSLSASVGDRVTITCKTSQNIERYLNWYQQKPGKAPKLLIYAASSLQSGVPSRFSGSGSGTDFTLTISSLQPEDFATYFCLQDNAWPLTFGQGTKVEIKRTVAAPSVFIFPPSDEQLKSGTASVVCLLNNFYPREAKVQWKVDNALQSGNSQESVTEQDSKDSTYSLSSTLTLSKADYEKHKVYACEVTHQGLSSPVTKSFNRGEC
# B3: optimized anti-E-selectin antibody 1448 (protein)
# chain 1: EVQLVESGGGLVQPGGSLRLSCAASGYAIRSAYMHWVRQAPGKGLEWVARIDPANGNTIYVDSVKERFTISADNAKNSAYLQMNSLRAEDTAVYYCAMDLYSTSEYWGQGTLVTVSSASTKGPSVFPLAPSSKSTSGGTAALGCLVKDYFPEPVTVSWNSGALTSGVHTFPAVLQSSGLYSLSSVVTVPSSSLGTQTYICNVNHKPSNTKVDKKVEPKSCDKTHTCPPCPAPEAAGAPSVFLFPPKPKDTLMISRTPEVTCVVVDVSHEDPEVKFNWYVDGVEVHNAKTKPREEQYNSTYRVVSVLTVLHQDWLNGKEYKCKVSNKALPAPIEKTISKAKGQPREPQVYTLPPSREEMTKNQVSLTCLVKGFYPSDIAVEWESNGQPENNYKTTPPVLDSDGSFFLYSKLTVDKSRWQQGNVFSCSVMHEALHNHYTQKSLSLSPG
# chain 2: DIQMTQSPSSLSASVGDRVTITCKTSQNIERYLNWYQQKPGKAPKLLIYAASSLQSGVPSRFSGSGSGTDFTLTISSLQPEDFATYFCLQDNAWPLTFGQGTKVEIKRTVAAPSVFIFPPSDEQLKSGTASVVCLLNNFYPREAKVQWKVDNALQSGNSQESVTEQDSKDSTYSLSSTLTLSKADYEKHKVYACEVTHQGLSSPVTKSFNRGEC
# B4: optimized anti-E-selectin antibody 1284 (protein)
# chain 1: EVQLVESGGGLVQPGGSLRLSCAASGYAIRSAYMHWVRQAPGKGLEWVARIDPANGNTIYVESVEGRFTISADNAKNSAYLQMNSLRAEDTAVYYCAMDLYSTSEYWGQGTLVTVSSASTKGPSVFPLAPSSKSTSGGTAALGCLVKDYFPEPVTVSWNSGALTSGVHTFPAVLQSSGLYSLSSVVTVPSSSLGTQTYICNVNHKPSNTKVDKKVEPKSCDKTHTCPPCPAPEAAGAPSVFLFPPKPKDTLMISRTPEVTCVVVDVSHEDPEVKFNWYVDGVEVHNAKTKPREEQYNSTYRVVSVLTVLHQDWLNGKEYKCKVSNKALPAPIEKTISKAKGQPREPQVYTLPPSREEMTKNQVSLTCLVKGFYPSDIAVEWESNGQPENNYKTTPPVLDSDGSFFLYSKLTVDKSRWQQGNVFSCSVMHEALHNHYTQKSLSLSPG
# chain 2: DIQMTQSPSSLSASVGDRVTITCKTSQNIERYLNWYQQKPGKAPKLLIYAASSLQSGVPSRFSGSGSGTDFTLTISSLQPEDFATYFCLQDNAWPLTFGQGTKVEIKRTVAAPSVFIFPPSDEQLKSGTASVVCLLNNFYPREAKVQWKVDNALQSGNSQESVTEQDSKDSTYSLSSTLTLSKADYEKHKVYACEVTHQGLSSPVTKSFNRGEC
# Assay: AC-SINS self-interaction
row,Protein,"AC-SINS (wavelength of maximum absorbance relative to blank, nm) [nm]"
1,B1,1
2,B2,1
3,B3,1
4,B4,1
